Measured values from patent publication US20120183475A1.

Experiments:
[1] = target: Human P-selectin (CD62P) on human platelets in whole blood (human) (UniProt P16109); assay: flow cytometry, human whole blood, non-activated platelets
[2] = target: Human P-selectin (CD62P) on human platelets in whole blood (human) (UniProt P16109); assay: flow cytometry, human whole blood, platelets activated with 200 uM TRAP
[3] = target: Human P-selectin (CD62P) on human platelets in whole blood (human) (UniProt P16109); assay: flow cytometry, human whole blood, platelets activated with 2.5 uM ADP

Chain of UniProt P16109 (P16109 42-830): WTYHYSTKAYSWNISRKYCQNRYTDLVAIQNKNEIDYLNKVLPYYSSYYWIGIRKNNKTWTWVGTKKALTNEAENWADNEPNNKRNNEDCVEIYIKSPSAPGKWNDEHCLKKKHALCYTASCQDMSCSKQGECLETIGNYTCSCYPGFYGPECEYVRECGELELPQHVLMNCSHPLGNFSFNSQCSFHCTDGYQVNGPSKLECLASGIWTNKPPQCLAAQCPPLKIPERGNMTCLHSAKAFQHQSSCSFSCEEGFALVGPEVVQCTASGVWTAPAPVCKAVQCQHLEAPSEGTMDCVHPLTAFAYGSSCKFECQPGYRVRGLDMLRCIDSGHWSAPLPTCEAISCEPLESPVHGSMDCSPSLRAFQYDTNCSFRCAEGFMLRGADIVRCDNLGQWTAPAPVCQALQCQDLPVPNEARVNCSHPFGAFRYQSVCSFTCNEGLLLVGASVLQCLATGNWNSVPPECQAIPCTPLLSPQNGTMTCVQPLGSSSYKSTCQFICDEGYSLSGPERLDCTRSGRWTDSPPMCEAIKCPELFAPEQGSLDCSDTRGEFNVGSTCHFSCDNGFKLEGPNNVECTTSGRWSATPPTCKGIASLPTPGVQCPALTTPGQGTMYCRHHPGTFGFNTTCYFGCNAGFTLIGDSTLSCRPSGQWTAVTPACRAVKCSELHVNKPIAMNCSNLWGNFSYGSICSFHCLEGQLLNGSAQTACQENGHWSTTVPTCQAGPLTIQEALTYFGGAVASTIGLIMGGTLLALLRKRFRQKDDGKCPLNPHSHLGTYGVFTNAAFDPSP

With “PC5-labeled antihuman P-selectin (CD62P, AK-4 clone) (antibody)” the positivity (% of platelets) [1] was 0.4%, the positivity (% of platelets) [2] was 97.8% and the positivity (% of platelets) [3] was 73.4%.
